Assay: yeast display, Sf9 membrane polyspecificity reagent, FACS + sequencing; frameworks hold sequencing errors
Summary of the method: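 After 36–48 hours of galactose induction, yeast (Saccharomyces cerevisiae BJ5465) displaying a synthetic nanobody library were stained at 4 °C for 1 hour with 10% biotinylated, detergent-solubilized Sf9 membrane reagent. Streptavidin microbeads enriched the stained cells before FACS sorting into low and high (top ~1%) gates on anti-HA and streptavidin fluorescence. Each clone's polyreactivity label reflects its gate of origin.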

Sequence	polyreactivity (PSR sort gate)
QVQLVESGGGLVQAGGSLRLSCAASGRIFWPYAMGWSRQAPGKERELVAAITSGGSTYYADSVKGRFTISRDNAKNTVYLQMNSLKPEDTAVYYCAKRSSGVSVPVAYGGIKRYNSWGQGTQVTVSS	low polyreactivity
QVQLVESGGGLVQAGGSLRLSCAASGRIFWRNAMGWSRQAPGKERELVAAISSGGSTYYADSVKGRFTISRDNAKNTVYLQMNSLKPEDTAVYYCAARSSWRGVRYDHFERVYWGQGTQVTVSS	high polyreactivity
QVQLVESGGGLVQAGGSLRLSCAASGRIFWRYAMGWYRQAPGKERELVAAITGRTGSTNYADSVKGRFTISRDNAKNTVYLQMNSLKPEDTAVYYCAAAHHRWTGLYPSGYEFDYWGQGTQVTVSS	low polyreactivity
QVQLVESGGGLVQAGGSLRLSCAASGRIFWSNAMGWYRQAPGKERELVAAIRWSGGSTYYADSVKGRCTISRDNAKTTVYLQMNSLKPEDTAVYYCAASPYWSDWTKVDSWGQGTQVTVSS	low polyreactivity
QVQLVESGGGLVQAGGSLRLSCAASGRIFWSYDMGWYRQAPGKERELVASITSDGSTNYADSVKGRFTISRDNAKNTVYLQMNSLKPEDTAVYYCAARPYQYDPFAQGDGGKYDYWGQGTQVTVSS	low polyreactivity
QVQLVESGGGLVQAGGSLRLSCAASGRIFWTNDMGWYSKAPGKERELVAGITWRGGSTYYADSVKGRFTISRDNAKNTVYLQMNSLKPEDTAVYYCATRYRRVYTWYDYWGQGTQVTVSS	high polyreactivity
QVQLVESGGGLVQAGGSLRLSCAASGRIFWTYAMGWYRQAPGKERELVAAITSGGSTYYADSVKGRVTISRDNAKNTVYLLMNSLKPEDTAVYYCAATSYYYNFMEHDYWGQGTQVTVSS	high polyreactivity
QVQLVESGGGLVQAGGSLRLSCAASGRIFWWYAMGWYRQAPGKERELVASISSRGTSTYYADSVKGRFTISRDNAKHTVYLQMNSLKPEDTAFYYCAARRPGRTSQDRYKYDYWGQGTQVTVSS	high polyreactivity
QVQLVESGGGLVQAGGSLRLSCAASGRIFWYNALGWYRQAPGKEREVVAAISWRGSRTYYADSVKGRFTISRDNAKNTVYLQMNSLKPEETAVYYCAAVIKWTKDDYWGQGTQVTVSS	high polyreactivity
QVQLVESGGGLVQAGGSLRLSCAASGRIFWYYAIGWYRQAPGKEREIVAAISRSGGTTYYADSVKGRFTISRDNAKNTVYLQMNSLKPEDTAVYYCAAVYHAYTGYEAWYEYDYWGQGTQVTVSS	high polyreactivity
QVQLVESGGGLVQAGGSLRLSCAASGRIFWYYAMGWYRQAAGKERELVAAISSGTTKYADSVKGRFTISRDNAKNTVYLQMNSLKPEDTAVYYCNAAAYYPTNYGGYLFEYWGQGTQVTVSS	low polyreactivity
QVQLVESGGGLVQAGGSLRLSCAASGRIFWYYAMGWYRQAPGKERELVADISTGGSTNYADSVKGRFTISRDNAKNTVYLQMNSLKPEDTAVYYCATTVPVILYVTPSTYAVVGYEYWGQGTQVTVSS	low polyreactivity
QVQLVESGGGLVQAGGSLRLSCAASGRIFWYYAMGWYRQAPGKERELVATISYGGGNTYYADSVKGRFTISRDNAKNTVYLQMNSLKPEDTAVYDCARVPYAYLPYKPFQQYSYDYWGQGTQVTVSS	high polyreactivity
QVQLVESGGGLVQAGGSLRLSCAASGRIFWYYNMGRYRQAPGKERELVASINSDTGTYYADSVKGRFTISRDNAKNTVYLQMNSLKPEDTAVYYCTRDSESDANTFTTSGIDEPYDYWGQGTQVTVSS	low polyreactivity
QVQLVESGGGLVQAGGSLRLSCAASGRIFYANAMGWYRQAPGKERELVAAISSGGSTYYADSVKGRFTISRDNANNTVYLQMNSLKPEDTAVYYFAASTVGQTFSYYVDTYDYWGQGTQVTVSS	low polyreactivity
QVQLVESGGGLVQAGGSLRLSCAASGRIFYANAMGWYRQAPGKERELVAGISSGGITNYADSVKGRFTISRDNAKNTVYLQMNSLKPEDTAVYYCAVESWNRWRNRNDYWGQGSQVTVSS	low polyreactivity

Sequence	polyreactivity (PSR sort gate)
QVQLVESGGGLVQAGGSLRLSCAASGRIFYAYAMGLYRQAPGKERELVAAITWSGGSTYYADSVKGRFTISRDNAKNTVYLQMNSLKQEDTAVYYCAADLRVKYVHTYSYVWYRYDYWGQGTQVTVSS	high polyreactivity
QVQLVESGGGLVQAGGSLRLSCAASGRIFYAYAMGWYRQAPGKERVFVAAISKRGGSTYYADSVKGRFTISRDNAKNTVYLQMNSRKPEDTAVYYCAADHEAIVRYDYWGQGTQVTVSS	low polyreactivity
QVQLVESGGGLVQAGGSLRLSCAASGRIFYDNAMGWYRQAPGKERELVAAISYSGDSTYYADSVKGRFTISRDNAKNTVYLQMNSLKPEDTAVYYCAAVYISQGAFAYDYWGQGTQVTVSS	low polyreactivity
QVQLVESGGGLVQAGGSLRLSCAASGRIFYDYAMGWYRQAPGKERELVAAISGSGGSTYYADSVKGRFTISRDKAKNTVYLQMNSLQPEDTEVYYCNRYTTRYYPGGDYWGHGTQVTVSS	high polyreactivity
QVQLVESGGGLVQAGGSLRLSCAASGRIFYEYAMGWYRQAPGKERELVAISTSGGNTYYADSVKGRFTISRDNAKNTVYLQMNSLKPEDTAVYYCAARLQYYPYYYWGQGTQVTVSS	high polyreactivity
QVQLVESGGGLVQAGGSLRLSCAASGRIFYEYASGWYRQAPGKERELVAISTSGGNTYYADSVKGRFTISRDNAKNTVYLQMNSLKPDDTAVYYCAARLQYYPYYYWGQGTQVTVSS	high polyreactivity
QVQLVESGGGLVQAGGSLRLSCAASGRIFYFNAMGWYRQAPGKERELVAAISGSGGDTYYADSVKGRFTISRDNAKNTVYLQMNSLNPEDTAVYYCAAEVYTWGQGTQVTVSS	low polyreactivity
QVQLVESGGGLVQAGGSLRLSCAASGRIFYFYAMGWYRQAPGKEREFVATISYTGGSRYYSDSVKGRFTISRDIAKNTVYLQMNSLKPEDTAVYYCAVRGWYPGFRYDYWGQGTQVTVSS	low polyreactivity
QVQLVESGGGLVQAGGSLRLSCAASGRIFYFYAMGWYRQAPGKERELVAGITRSGDSTYADSVKGRFTISRDNAKNTVYLQMNSLKPEDTAVYYCAADFPWSTKSCHPDSGDSWGQGTQVTVSS	low polyreactivity
QVQLVESGGGLVQAGGSLRLSCAASGRIFYFYAMGWYRQAPGKETELVAAISTSGGSTYYADSVKGRFTISRDNEKNTVYLQMNSLKPEYTAVYYCAARFRYYGSEYDYWGQGTQVTVSS	low polyreactivity
QVQLVESGGGLVQAGGSLRLSCAASGRIFYGNAMGWYRQAPGKERELVAAISSGGGSTYYADSVKGRFTISRDNAKNTVYLQMNSLKPEDTAVYYCAADPVHRFPGTGGYWGQGTQVTVSS	low polyreactivity
QVQLVESGGGLVQAGGSLRLSCAASGRIFYGNAMGWYRQAPGKERELVAAISSGTSTNYADSVKGLFTISRDNAKNTVYLQMHCLKPVDTAVYYCAAGSYSLYLYSLYFDFDYWGQGTQVTVSS	low polyreactivity
QVQLVESGGGLVQAGGSLRLSCAASGRIFYGNAMGWYRQAPGKERELVAAISSGTTTNYADSVKGRFTISRDNAKNTVYLQMNSLKPEDTAVYYCAAGSYSRYLYSLYFDFDYWGQGTQVTVSS	low polyreactivity
QVQLVESGGGLVQAGGSLRLSCAASGRIFYGNAMGWYRQAPGKERELVASITSSGSTKYADSVKGRFTISRDNAKNTVYLQMNSLKPEDTAVYYCAASYTKRYDTYAGYDYWGQGTQVTVSS	low polyreactivity
QVQLVESGGGLVQAGGSLRLSCAASGRIFYGNAMGWYRQAPGKESELVASITSSGSTKYADSVKGRFTISRDNAKNTVYLQMYSLKPVDTAVYYCAASSTKRYDTYAGYDYWGQGTQVTVSS	low polyreactivity
